The experiment addresses HLA-DR1 (human). Briefly: competitive binding assay; DR1 format not described.
Regarding HFVMQRLPLYFIVN (peptide, UniProt P02708 224-237, looked up) [AChRα peptide 204-217], the IC50 was 1.75 µM. The figure for QLIQLINVDEVNQI (peptide, UniProt P02708 56-69, looked up, range 36-49; also called AChRα 36-49) [AChRα peptide 36-49] is 11.2 µM; for KYVAMVMDHILLGV (peptide, UniProt P02708 420-433, looked up) [AChRα peptide 400-413] it is 11.7 µM.

One may read the IC50 as the concentration needed to halve the response being measured.
